Measurements as given in US20230357429A1 (JANUX THERAPEUTICS, published 2023).
Where a chain is given by its changes, count along the chain named. Numbers in names are those of the source. Where no end group is shown, it is not given here.

B1: TBD-21 (HC F108A) (Fab, V domains shown)
VH: QVQLQQSGSELKKPGASVKVSCKASGYTFTNYGMNWVKQAPGQGLKWMGWINTYTGEPTYTDDFKGRFAFSLDTSVSTAYLQISSLKADDTAVYFCARGGFGSSYWYADVWGQGSLVTVSS
VL: DIQLTQSPSSLSASVGDRVSITCKASQDVSIAVAWYQQKPGKAPKLLIYSASYRYTGVPDRFSGSGSGTDFTLTISSLQPEDFAVYYCQQHYITPLTFGAGTKVEIKR
notes: Fab; also called HC F108A mutant
B2: TBD-11 (HC R98A) (Fab, V domains shown)
VH: B1 VH with R98A, A108F
VL: B1 VL
notes: Fab; also called HC R98A mutant
B3: TBD-6 (LC I93A) (Fab, V domains shown)
VH: B1 VH with A108F
VL: B1 VL with I93A
notes: Fab; also called LC I93A mutant
B4: TBD-17 (HC S104A) (Fab, V domains shown)
VH: B1 VH with S104A, A108F
VL: B1 VL
notes: Fab; also called HC S104A mutant
B5: TBD-1 wt (Fab, V domains shown)
VH: B1 VH with A108F
VL: B1 VL
notes: Fab; the heavy chain entry is VH-CH1; also called wild-type anti-TROP2 Fab (hRS7); TROP2 Fab

Each binder was assayed against T1, Human TROP2 ECD (31-274 AA), biotinylated (human, UniProt P09758 31-274, biotinylated (site not stated)) (assay: ELISA, Fab on captured biotin-TROP2).
T1 construct: captured on neutravidin plates; also called TROP2-biotin; Trop2-biotin
T1 sequence: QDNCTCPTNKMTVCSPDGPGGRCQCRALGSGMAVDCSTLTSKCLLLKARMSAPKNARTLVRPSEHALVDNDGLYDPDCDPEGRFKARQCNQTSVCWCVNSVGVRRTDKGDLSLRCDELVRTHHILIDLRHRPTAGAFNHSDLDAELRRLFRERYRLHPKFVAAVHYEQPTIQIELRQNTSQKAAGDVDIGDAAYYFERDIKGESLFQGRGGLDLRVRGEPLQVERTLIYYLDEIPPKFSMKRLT

Binder | EC50
B1 | 4.2 nM
B2 | 3.4 nM
B3 | 0.3 nM
B4 | 0.3 nM

Target: T1, Human TROP2 ECD (31-274 AA), …
Experiment: ELISA, Fab on captured biotin-TROP2
Remark: another data set of the same source

Binder | EC50
B1 | 4.2 nM
B2 | 3.4 nM
B3 | 0.3 nM
B4 | 0.3 nM

Target: T1, Human TROP2 ECD (31-274 AA), …
Experiment: ELISA, Fab on captured biotin-TROP2
Remark: another data set of the same source

Binder | EC50
B2 | 3.4 nM
B3 | 0.3 nM

Target: T2, Peptide-3 (cysteine pairing not given here; also: biotinylated, site not given here)
T2 peptide: IDFCMLYNWPICAG
Experiment: ELISA, Fab on captured biotin-peptide

Binder | EC50
B5 | 12.8 nM
B1 | 12.3 nM
B2 | 246 nM
B3 | 11.4 nM
B4 | 6.4 nM

Target: T3, Peptide-4 (cysteine pairing not given here; also: biotinylated, site not given here)
T3 peptide: VDFCKIYAWPICGS
Experiment: ELISA, Fab on captured biotin-peptide

Binder | EC50
B5 | 9.2 nM
B1 | 12.7 nM
B2 | 179 nM
B3 | 15.3 nM
B4 | 6.5 nM

Target: T4, Peptide-5 (cysteine pairing not given here; also: biotinylated, site not given here)
T4 peptide: VDFCKLYNWPVCQT
Experiment: ELISA, Fab on captured biotin-peptide

Binder | EC50
B5 | 16.5 nM
B1 | 15.6 nM
B2 | 232 nM
B3 | 9.9 nM
B4 | 5.4 nM

Target: T5, Peptide-6 (cysteine pairing not given here; also: biotinylated, site not given here)
T5 peptide: IDFCLIYNWPVCDT
Experiment: ELISA, Fab on captured biotin-peptide

Binder | EC50
B5 | 28.5 nM
B1 | 24.9 nM
B2 | 363 nM
B3 | 15 nM
B4 | 10.1 nM

Target: T6, Peptide-7 (cysteine pairing not given here; also: biotinylated, site not given here)
T6 peptide: EDFCKLYNWPICYQ
Experiment: ELISA, Fab on captured biotin-peptide

Binder | EC50
B5 | 37.5 nM
B1 | 27.4 nM
B2 | 343 nM
B3 | 59.6 nM
B4 | 15.6 nM

Target: T7, Peptide-8 (cysteine pairing not given here; also: biotinylated, site not given here)
T7 peptide: VDFCGLYHWPICYQ
Experiment: ELISA, Fab on captured biotin-peptide

Binder | EC50
B5 | 40.2 nM
B1 | 13 nM
B2 | 156 nM
B3 | 18.8 nM
B4 | 8.2 nM

Target: T8, Peptide-10 (cysteine pairing not given here; also: biotinylated (site not given here))
T8 peptide: IDFCAIYQWPVCRS
Experiment: ELISA, Fab on captured biotin-peptide

Binder | EC50
B5 | 62.6 nM
B1 | 15.2 nM
B2 | 272 nM
B3 | 8.5 nM
B4 | 6.5 nM

Target: T9, Peptide-12 (cysteine pairing not given here; also: biotinylated (site not given here))
T9 peptide: PDFCAVYRWPICYQ
Experiment: ELISA, Fab on captured biotin-peptide

Binder | EC50
B5 | 35.9 nM
B1 | 10.1 nM
B2 | 157 nM
B3 | 18.2 nM
B4 | 6.8 nM

Target: T10, Peptide-13 (cysteine pairing not given here; also: biotinylated (site not given here))
T10 peptide: VDFCELYRWPICNS
Experiment: ELISA, Fab on captured biotin-peptide

Binder | EC50
B5 | 157 nM
B1 | 22.6 nM
B2 | 388 nM
B3 | 21.4 nM
B4 | 10 nM

Target: T11, Peptide-14 (cysteine pairing not given here; also: biotinylated (site not given here))
T11 peptide: LDFCKIYDWPICHL
Experiment: ELISA, Fab on captured biotin-peptide

Binder | EC50
B5 | 379 nM
B1 | 53.3 nM
B2 | 332 nM
B3 | 145 nM
B4 | 71 nM

Target: T12, Peptide-17 (cysteine pairing not given here; also: biotinylated (site not given here))
T12 peptide: IDFCLLYDWPICGR
Experiment: ELISA, Fab on captured biotin-peptide

Binder | EC50
B5 | 132 nM
B1 | 16.4 nM
B2 | 191 nM
B3 | 16.5 nM
B4 | 8.5 nM

Target: T13, Peptide-18 (cysteine pairing not given here; also: biotinylated (site not given here))
T13 peptide: MDFCQIYDWPICRL
Experiment: ELISA, Fab on captured biotin-peptide

Binder | EC50
B5 | 474 nM
B1 | 38 nM
B2 | 298 nM
B3 | 83.2 nM
B4 | 36.7 nM

Target: T14, Peptide-20 (cysteine pairing not given here; also: biotinylated (site not given here))
T14 peptide: VDFCSFYRWPICET
Experiment: ELISA, Fab on captured biotin-peptide

Binder | EC50
B5 | 600 nM
B1 | 89 nM
B3 | 140 nM
B4 | 115 nM

Target: T15, Peptide-24 (cysteine pairing not given here; also: biotinylated (site not given here))
T15 peptide: SVLFCVKNLYCWVT
Experiment: ELISA, Fab on captured biotin-peptide

Binder | EC50
B1 | 142 nM
B4 | 133 nM

Target: T16, Peptide-25 (cysteine pairing not given here; also: biotinylated (site not given here))
T16 peptide: VDFCKIYSWPVCHQ
Experiment: ELISA, Fab on captured biotin-peptide

Binder | EC50
B5 | 48.2 nM
B1 | 48.4 nM
B2 | > 1000 nM
B3 | 38.3 nM
B4 | 38.8 nM

Target: T17, Peptide-26 (cysteine pairing not given here; also: biotinylated, site not given here)
T17 peptide: DNLICVKNLWCWIA
Experiment: ELISA, Fab on captured biotin-peptide

Binder | EC50
B5 | 85 nM
B1 | 390 nM
B4 | 379 nM

Target: T18, Peptide-27 (cysteine pairing not given here; also: biotinylated, site not given here)
T18 peptide: FSLVCVRNLYCWNV
Experiment: ELISA, Fab on captured biotin-peptide

Binder | EC50
B5 | 23.9 nM
B1 | 149 nM
B3 | 178 nM
B4 | 107 nM

Target: T19, Peptide-28 (cysteine pairing not given here; also: biotinylated, site not given here)
T19 peptide: NYLLCVKNLYCWIV
Experiment: ELISA, Fab on captured biotin-peptide

Binder | EC50
B1 | 146 nM
B3 | 681 nM
B4 | 247 nM

Target: T20, Peptide-29 (cysteine pairing not given here; also: biotinylated, site not given here)
T20 peptide: SYLVCVKNVYCWTA
Experiment: ELISA, Fab on captured biotin-peptide

Binder | EC50
B5 | 6.7 nM
B1 | 23.4 nM
B3 | 43.8 nM
B4 | 24.8 nM

Target: T21, Peptide-31 (cysteine pairing not given here; also: biotinylated, site not given here)
T21 peptide: YSLVCVKNLYCWNL
Experiment: ELISA, Fab on captured biotin-peptide

Binder | EC50
B5 | 42.1 nM
B3 | 791 nM
B4 | 164 nM

Target: T22, Peptide-1 (cysteine pairing not given here; also: biotinylated (site not given here))
T22 peptide: IDFCAMYQWPICDT
Experiment: ELISA, Fab on captured biotin-peptide

Binder | EC50
B5 | 22.5 nM
B1 | 13.5 nM
B2 | 292 nM
B3 | 14.8 nM
B4 | 7.3 nM

Target: T23, Peptide-2 (cysteine pairing not given here; also: biotinylated (site not given here))
T23 peptide: IDFCAVYKWPVCQV
Experiment: ELISA, Fab on captured biotin-peptide

Binder | EC50
B5 | 13.7 nM
B1 | 12.9 nM
B2 | 204 nM
B3 | 9.9 nM
B4 | 5.7 nM

Target: T24, Peptide-41 (cysteine pairing not given here; also: biotinylated, site not given here)
T24 peptide: VDFCGLYHWPICYQVY
Experiment: ELISA, Fab on captured biotin-peptide

Binder | EC50
B5 | 102 nM
B1 | 47.2 nM
B2 | 159 nM
B3 | 41 nM
B4 | 28.9 nM

Target: T25, Peptide-46 (cysteine pairing not given here; also: biotinylated, site not given here)
T25 peptide: VEFCAIYSWPICKI
Experiment: ELISA, Fab on captured biotin-peptide

Binder | EC50
B5 | 668 nM
B3 | 102 nM

Target: T26, Peptide-52 (cysteine pairing not given here; also: biotinylated, site not given here)
T26 peptide: VDFCYQYAWPVCSTGD
Experiment: ELISA, Fab on captured biotin-peptide

Binder | EC50
B5 | 127 nM
B3 | 39.3 nM

Target: T20, Peptide-29
Experiment: ELISA: biotinylated peptide captured on neutravidin plate, Fab titrated, HRP secondary antibody
Description: Binding was measured in a standard ELISA format. […] Bound TBDs were detected using a standard horse radish peroxidase conjugate secondary antibody. The ELISA signal was plotted versus the log-scale concentration of TBD. The concentrations of TBD required to observe half maximal binding signal (EC₅₀s) were calculated using Graphpad Prism software.

Binder | binding result
B2 | binds
